# Results published in publication PMC10176472.
# Tests used:
# [1] = target: GST-CDK4 (UniProt P11802); assay: MST; microscale thermophoresis of MBP-P16p and MBP-cycP16p with GST-CDK4; three replicate measurements
# [2] = target: CDK4 from MCF-7 cell lysate (human (endogenous in MCF-7)) (UniProt P11802)
# [3] = target: CDK4 from MCF-7 cell lysate (human (endogenous in MCF-7)) (UniProt P11802); remark: listed apart in the source
Kd [1],"G0/G1 cell cycle arrest of MCF-7 cells, time course up to 72 h in serum-supplemented medium [2]","G0/G1 cell cycle arrest of MCF-7 cells treated for 24 h with different concentrations, flow cytometry; value at 15 μM [3]",Substance
0.117 µM,–,–,MBP-P16p (linear counterpart of MBP-cycP16p) (from UniProt P42771 83-103) (peptide)
–,88%,76.7%,bicyclic cycRGD-mCh-cycP16p (from UniProt P42771 83-103)
0.0277 µM,–,–,cyclized MBP-P16p protein (MBP-cycP16p) (from UniProt P42771 83-103) (peptide)
